Experimental data: the DeepSol protein solubility set

Test: soluble on expression in E. coli; label from the status in PepcDB or PDB records

Soluble on expression in E. coli, soluble:
MSLKQNQNSDESIDENMSVDNTETCMVDTVKATAIFWIDKAEAKHCKDSGLRTIKAKVFIHENGKVDFLSFTKKQSSGVEKYILHHLDKFQISKRMLEGGYIQTGEQFVQLRCMREKLQAMQEGHHHHHH
MHHHHHHSSGRENLYFQGESTRRLILVGRTGAGKSATGNSILGQRRFFSRLGATSVTRACTTGSRRWDKCHVEVVDTPDIFSSQVSKTDPGCEERGHCYLLSAPGPHALLLVTQLGRFTAQDQQAVRQVRDMFGEDVLKWMVIVFTRKEDLAGGSLHDYVSNTENRALRELVAECGGRVCAFDNRATGREQEAQVEQLLGMVEGLVLEHKGAHYSNEVYELAQVLRWAGPEERLRRVAERVAARVQR
QTGGSFFEPFNSYNSGTWEKADGYSNGGVFNCTWRANNVNFTNDGKLKLGLTSSAYNKFDCAEYRSTNIYGYGLYEVSMKPAKNTGIVSSFFTYTGPAHGTQWDEIDIEFLGKDTTKVQFNYYTNGVGGHEKVISLGFDASKGFHTYAFDWQPGYIKWYVDGVLKHTATANIPSTPGKIMMNLWNGTGVDDWLGSYNGANPLYAEYDWVKYTSN
MGHHHHHHSHMRVFIIHLSPKTCQNFSLKETHITPLLESLKLQGISYEIFDAIYSKISPTQLHPLILEHLHPSFMVEDLWAFCKNKKHPPCALKNFFYAIKHCGKRMGFGELGCYASHYSLWQKCIELNEAICILEDDIIIKDRFKESLEFCRHHINELGYIRLMHLEENVAKQKTPVKGVSQILNFKDGIGTQGYVLAPKAAQKLLKYSAKEWVMPIDCVMDRHYWHGVKNYVLEEFAIACDGMNAQNSNTEKQRPKKLPLSIRIGRSLHKSTIKFLDKVFRYSPKLIRIGKH
GMNNSLAFNHDTLPQKVMFGYGKSSAFLKQEVERRGSAKVMVIAGEREMSIAHKVASEIEVAIWHDEVVMHVPIEVAERARAVATDNEIDLLVCVGGGSTIGLAKAIAMTTALPIVAIPTTYAGSEATNVWGLTEAARKTTGVDLKVLPETVIYDSELTMSLPVEMSVASGLNGLAHCIDSLWGPNADPINAVLAAEGIRALNQGLPKIVANPHSIEGRDEALYGAYLAAVSFASAGSGLHHKICHTLGGTFNLPHAQTHATVLPYVLAFNAGDAPEAERRAAAAFGTDTALEGLQRLRLSVNAPKRLSDYGFEASGIAEAVDVTLEKVPANNPRPVTRENLSRLLEAALNGEDPAVLSAVLSN
MHHHHHHSSGRENLYFQGDLQATPGMFITSKKGHLSEMYQRVKKLGSGAYGEVLLCRDKVTHVERAIKIIRKTSVSTSSNSKLLEEVAVLKLLDHPNIMKLYDFFEDKRNYYLVMECYKGGELFDEIIHRMKFNEVDAAVIIKQVLSGVTYLHKHNIVHRDLKPENLLLESKEKDALIKIVDFGLSAVFENQKKMKERLGTAYYIAPEVLRKKYDEKCDVWSIGVILFILLAGYPPFGGQTDQEILRKVEKGKYTFDSPEWKNVSEGAKDLIKQMLQFDSQRRISAQQALEHPWIKEMCSKKESGIELPSLANAIENMRKFQNSQKLAQAALLYMASKLTSQEETKELTDIFRHIDKNGDGQLDRQELIDGYSKLSGEEVAVFDLPQIESEVDAILGAADFDRNGYIDYSEFVTVAMDRKSLLSKDKLESAFQKFDQDGNGKISVDELASVFGLDHLESKTWKEMISGIDSNNDGDVDFEEFCKMIQKLCSNNE

Soluble on expression in E. coli, not soluble:
MAHHHHHHMYSFSPVTPGKTAASPANDLVSSSSNSNGELVDDIKESLDRIEKLLNRGQQLLYGDGAADGKKAYSEGAAVTPDGEPADADTVSIPTARHVDANCGSYQLPSDTHVGLPLRGTGTSAAANASLYPQSTSQHSASHFQRNSEKLYQRLSGESNHRYPSQNGSNRSSLHARPHANRASVGSNRLPPGFKDKVLVSVRGRRIVQIQKEGGIVPNFEEGLDAHDTPQNFTIEELKARIHRELEEYRRLGPLMNRYKSFRRRQCVTVAKRAPMMKIASRTFTAATTAALGSKLVKHIPAPASASTPQGAANRFGVHAAAATTKTGPHAAPASRQAAKSTNGTPARSTLRNSHERGRVETRRADRGSHPPMMAPPGNSTYSAYYNPLQMSGGSRNASCELSLKQTAGCSDVVPQHARNVSKSKPRTTEPQDDMEEASLPDSMEDCDASQPYVAPLDLSVIKK
MKFIFFVLYVLQFLPFALLHKIADLTGLLAYLLVKPRRRIGEINLAKCFSEWSEEKRKTVLKQHFKHMAKLMLEYGLYWYAPAGRLKSLVRYRNKHYLDDALAAGEKVIILYPHFTAFEMAVYALNQDIPLISMYSHQKNKILDEQILKGRNRYHNVFLIGRTEGLRALVKQFRKSSAPFLYLPDQDFGRNDSVFVDFFGIQTATITGLSRIAALANAKVIPAIPVREADNTVTLHFYPAWKSFPGEDAKADAQRMNRFIEDRVREHPEQYFWLHKRFKTRPEGSPDFY
MAHHHHHHMLGKLGLRTEAYPFDFSRVTLDGLMHFIRNGFAEGFYPPGPLPYRPECVGPWVLFRGQHTAFAHFDLNDPHVQAHFQVKMRRFDAVLNSPERPVTFFRTVTARYPQQELALALDLEEAVARRNPSLDFRIVFMVHDQGLRANAVQLAPLSPRVTLWTLQYRGLPGDTLFDRTHTAYRTVMMHSVAESNWPAVNVGVATPPPATVAPAEARDFESGALRCDGAIRTDDVPLSDLTVDRFPWRSHDNLALIDGVASVGGTCAGIGSTKMLEDASAALQVEGRVRRKCRYCGDATYHAAGRPFRTERPFTDEEDQLVLIHLYQILTGGDKVAAVEKLAHEMRRGTYEVICRIQYLTNSSTKLMDSIDPASPSDS
MIYSMTAYARKEVKGNWGSAVWEIRSVNQRYLETYFRMPEQFRALEPVLRERFRKRLARGKVECSLRFEANPAAKAELSINEALATQVIKAAEQVMHMTGELSRINPFQVMQWPGVMETPEQNMDEVNKELLAAFDEAISEFIEARGREGDNMKALIEQRLDAITAEVVKVRARMPEILEWQRERLFSKFEDAKIELDASRVEQELILLAQKSDVAEELDRLDSHVKETTNILKKGGAVGRRLDFMMQEFNRESNTLASKSISTDITASGVELKVLIEQMREQIQNIE
MGSDKIHHHHHHMLDITMFSKADSVKGQGVGSAYLELMRLLRTHWQDEFNIKVNRYGRSAVSHYHTVNPMFYLSTFMPNRGRKIGYVHFLPETLEGSLKLPRPFQMIFNRYLISFYKRMDHIVVVNPTFIPKLEAYHIKRADVTYIPNFVSKREFYEMTKAKQLRLRQQYGYDQNKFMIIGTGQIQDRKGVPDFITLAKQNPDIQFVWAGGFSFGRITDGYQELKQVVDNPPANLSFPGIVPREKLVDYYNMADLFLLPSYNELFPMSVLEAFSCGTPVLLRDLDLYRAIIDGYYQAASDVDDMQRQIDQLSHNPAGLQFLHDKAVLAAQD
MAHHHHHHMALPPATLQSPAVPDGQQHLGCSGGSGHLSVAALDQSRTPLYSAERRASLCDESGALAAVSLSADASRPTAANFVKGELIGKGSYGAVYRGMQRSNNRIIAMKEIRLPGVVEQQLRQSEKLAATAASPAGVSSPVLPASNSVKGESALAKEVAAIKRELTLLKQLNHPNIVRYLNDEVVDGTLRIYMDYVSGGSVTAALKSYGSFEEPQAAALCFQLLQGLVYMHRRGIIHRDLKGDNLLLETSSQLKIADLGTAKSIFSSATMTTSIVGTAYFMAPEVLQPSGAAVGTAADIWSVGCCLIEMMTGKPPLSDLPNQFTVMMAIGGSATVPLDKYIPADNTWSDEVLDFISQCLRANPAQRPTAVDLLQHSWFAKFLNVMHAPSMSTPATLDSMLTPTAPPIERPFTLSPQRQMVSPICSPNLTAALTPGYAGPQYSSGQPESSASSHTSRERKGKRDKRVSARRHARYSTSGATSATSRRSQESSQASTPQYSSGTRTRDGSAQSASLPRSHSHPGRQQGPSSKRRAHAHIVGHGLPRDDSRQSFSSEQAMPQHTCTPGSGGAGDGSGENKTKTAFLPAITHNGSVAPSPCGYSLDVSRCSRSLKNSGSSREPTKACLYTTDTENKS
GERIDIRISPYLQDLFDAARADGVYPIVASGYRTTEKQQEIMDEKVAEYKAKGYTSAQAKAEAETWVAVPGTSEHQLGLAVDINADGIHSTGNEVYRWLDENSYRFGFIRRYPPDKTEITGVSNEPWHYRYVGIEAATKIYHQGLCLEEYLNTEK
MATSRFQAFLNSPIGPKTTHFWGPIANWGFVAAGLVDMQKPPEMISGNMSSAMCVYSALFMRFAWMVQPRNYLLLACHASNETVQLYQLSRWARAQGYLSSKKEEEKPSQ
